From patent CN111995682A (BIOSION BIO TECH NANJING CO LTD, dated 2020)

What was measured:
[1] = target: T1, 重组人SIRPα带his标签的蛋白 (human, UniProt P78324 31-373); test: SPR (Biacore T200), human SIRPα-his as analyte
T1 construct: extracellular domain; also called 人SIRPα-his抗原; SRPA-ECD-His; not shown: C-terminal His tag from vector pCMV-C-His

[2] = target: T1, 重组人SIRPα带his标签的蛋白; test: SPR (Biacore T200), ratio of KD against Benchmark
[3] = target: T1, 重组人SIRPα带his标签的蛋白; test: SPR (Biacore T200), antibody captured on anti-mouse IgG CM5 chip, human SIRPα-his as analyte
[4] = target: T2, 人SIRPβ-ECD-His抗原 (human, UniProt O00241 30-371); test: ELISA summary (Table 3, methods of Example 2)
T2 construct: It ends in a His tag; also called SIRPβ抗原
T2 sequence (O00241 other isoform, or with tags, fused parts or gaps): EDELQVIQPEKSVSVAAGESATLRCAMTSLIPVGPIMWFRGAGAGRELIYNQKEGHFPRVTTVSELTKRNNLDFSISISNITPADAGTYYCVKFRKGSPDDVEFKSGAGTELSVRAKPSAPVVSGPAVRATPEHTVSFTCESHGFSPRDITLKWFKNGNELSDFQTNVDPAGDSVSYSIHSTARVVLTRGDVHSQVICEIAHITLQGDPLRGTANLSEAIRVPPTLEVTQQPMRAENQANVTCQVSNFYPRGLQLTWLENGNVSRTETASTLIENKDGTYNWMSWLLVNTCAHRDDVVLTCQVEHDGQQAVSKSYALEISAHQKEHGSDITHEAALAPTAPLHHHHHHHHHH

T1 sequence (P78324 31-373): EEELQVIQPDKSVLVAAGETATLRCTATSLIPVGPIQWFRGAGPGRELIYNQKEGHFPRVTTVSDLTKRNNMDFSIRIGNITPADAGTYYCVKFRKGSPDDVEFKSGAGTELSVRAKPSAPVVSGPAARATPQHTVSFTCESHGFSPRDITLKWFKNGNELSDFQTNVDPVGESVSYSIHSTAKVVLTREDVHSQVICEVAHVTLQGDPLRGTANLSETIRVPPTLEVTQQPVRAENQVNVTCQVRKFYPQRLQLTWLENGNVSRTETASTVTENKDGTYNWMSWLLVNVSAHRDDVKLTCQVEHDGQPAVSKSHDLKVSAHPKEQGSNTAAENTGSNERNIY

B1: Benchmark (KWAR23抗体) (antibody, human IgG4 S228P, kappa, V domains shown)
VH: EVQLQQSGAELVKPGASVKLSCTASGFNIKDYYIHWVQQRTEQGLEWIGRIDPEDGETKYAPKFQDKATITADTSSNTAYLHLSSLTSEDTAVYYCARWGAYWGQGTLVTVSA
VL: QIVLTQSPAIMSASPGEKVTLTCSASSSVSSSYLYWYQQKPGSSPKLWIYSTSNLASGVPARFSGSGSGTSYSLTISSMEAEDAASYFCHQWSSYPRTFGAGTKLELKR
notes: Made in-house; full heavy and light chains are printed; The printed constant regions look human, while the ELISA and Biacore protocols describe anti-mouse capture and detection reagents; also called BM; 参照抗体
**Q.** How did the Kd [1] turn out when B1 was run?
**A.** 2.94 nM

B2: 抗人SIRPα单克隆抗体 A2D9D1B1 (antibody, mouse IgG1, kappa, V domains shown)
VH: QVQLKESGPGLVAPSQSLSITCTVSGFSLSSYAIHWVRQPPGKGLEWLGVIWTGGSTIYNSALMSRLNISKDNSKSQVFLKMNSLQTDDTAMYYCARGNYLRYWGQGTLVTVSA
VL: NIVLTQSPASLAVSLGQRATISCRASESVDSYGYSYMHWNQQKPGQPPKLLIYLASDLESGVPARFSGSGSRTDFTLTIDPVEADDAATYYCQQNNDDPWTFGGGTKLEIKR
notes: also called 鼠抗A2D9D1B1; A2D9D1B1单克隆抗体
**Q.** B2 was tested. Which “fold stronger affinity than Benchmark” value [2] did it give?
**A.** ~2.4 fold

**Q.** What about the Kd [3] of the same binder?
**A.** 1.25 nM

**Q.** Does B2 bind [4]?
**A.** binds
